According to patent US20250009931A1 (GEL4MED, INC., priority 2021, published 2025):
Square brackets hold non-standard residues; d marks the D form. Ends that are not written are not given here.

How the values were obtained:
[1] = Net charge and isoelectric point of peptide; type: physicochemical; conditions: pH 7
Description: The peptide may be purified. For example, the peptide may be lyophilized. […] Other peptides are within the scope of the disclosure.
Exemplary peptides having a charge of +5 to +9 include […](d)[…], […](d)[…], and […](d)[…]. In other embodiments, the purified peptide may be substantially neutral. […] Net charge may be selected by peptide design. Design of electrostatic charge in the peptide hydrogel may allow control of charge interaction with cell membrane and proteins.

[2] = cited from earlier work

Compound | net charge [1] | pKa [2]
VEVSVSVEVPPTEVSVEVEV (VEVSVSVEV[dP]PTEVSVEVEV) | net negative charge | –
O=C(O)C(F)(F)F [trifluoroacetic acid] | – | about 0
